According to patent US20230002757A1 (ZHEJIANG NANOMAB TECHNOLOGY CENTER, published 2023):

Key:
Test in all cases: ELISA, supernatant
MSLN epitope domain 3 = target: T1, MSLN epitope domain 3 (UniProt Q13421 487-598, limits assumed)
T1 construct: domain: domain 3; also called domain 3 of MSLN

MSLN epitope domain 2 = target: T2, MSLN epitope domain 2 (UniProt Q13421 391-486, limits assumed)
T2 construct: domain: domain 2; also called domain 2 of MSLN

MSLN epitope domain 1 = target: T3, MSLN epitope domain 1 (UniProt Q13421 296-390, limits assumed)
T3 construct: domain: domain 1; also called domain 1 of MSLN
T3 sequence (Q13421 296-390 limits assumed): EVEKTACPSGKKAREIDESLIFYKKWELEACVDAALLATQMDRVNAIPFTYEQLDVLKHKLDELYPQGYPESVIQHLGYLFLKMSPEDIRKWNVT

T2 sequence (Q13421 other isoform, or with tags, fused parts or gaps limits assumed): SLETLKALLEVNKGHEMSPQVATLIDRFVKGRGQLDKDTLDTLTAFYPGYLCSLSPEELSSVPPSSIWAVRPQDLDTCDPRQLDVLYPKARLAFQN
T1 sequence (Q13421 495-606 limits assumed): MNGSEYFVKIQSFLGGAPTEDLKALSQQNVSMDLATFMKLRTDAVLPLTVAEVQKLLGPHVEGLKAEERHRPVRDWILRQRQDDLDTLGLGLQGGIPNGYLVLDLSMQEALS

| binding result (MSLN epitope domain 3) | binding result (MSLN epitope domain 2) | binding result (MSLN epitope domain 1) | Binder |
| --- | --- | --- | --- |
| no binding | no binding |  | NBL501#008 (VHH, tested as supernatant in ELISA) VHH: QVQLVESGGGLVQAGGSLRLSCVASGIVFRLNAMGWFRQAPGRERELVATIASGGWAYYGDTMSGRVTISRDNDKNTLYLEMNSLKPEDSAMYYCSAGGARPHSWGQGTQVTVSS |
| no binding | no binding |  | NBL501#002 (VHH, tested as supernatant in ELISA) VHH: QVQLVESGGGLVQAGGSLRLSCAASISIRRINAMGWYRQAPGKERELVAVISSPNKTLYADSVKGRFTISKDNYTNTLYLQMNSLKPEDTAMYYCSAWRIGVDTTDYYGQGTQVTVSS |
| no binding |  | no binding | NBL501#009 (VHH, tested as supernatant in ELISA) VHH: EVQVVESGGGLVQAGGSLRLSCVASGFTFSVAAMRWYRQAPGKQREWVASAFSDGNLHYEDFVKGRFTISRDDAKNTLYLQMDSLKPEDTAVYYCNAGTPSRAYWGQGTQVTVSS |
| no binding | no binding |  | NBL501#004 (VHH, tested as supernatant in ELISA) VHH: EVQVVESGGGLVQAGGSLRLSCVPSGSISSIYAMGWYRQALGPERELVAAQTLGGGTYYANPVKGRFTIYRDNDKNTLYLQMNNLKPEDTAMYYCATPGEHWGSSDVTNWGQGTQVTVSS |
